± gives the uncertainty stated by the source.
Experiment: amyloid nucleation score (Sup35N fusion, yeast selection) (log enrichment); library NNK3; higher = more nucleation; inactive = no reads after selection
Summary of the method: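 The nucleation score, computed with DiMSum, is the log enrichment of output over input reads, centred on the mode score of non-aggregating sequences. Sequences with under 100 input reads were dropped. Reads were generated by Illumina sequencing of plasmid inserts from psi-negative yeast with Sup35N fused to peptides of 20 random codons, induced with 100 μM copper sulfate for 24 hours and grown 7 days at 30°C on medium lacking adenine and uracil.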
For YYSLWRSIIVEACRFC, the amyloid nucleation score was “inactive”.
In the case of MRVVEYMTSLLSLIFYMGQK, the amyloid nucleation score is reported as “inactive”.
In the case of VVDILFKMHEVDSVI, the amyloid nucleation score is reported as “inactive”.
For VTCCARTYYSWP, the amyloid nucleation score was “inactive”.
For VTFSSISHIRRYVSNHMCLG, the amyloid nucleation score was “inactive”.
For LSASGYQSCSNVMMSTHVSN, the amyloid nucleation score was “inactive”.
GGDSPNDARRFFNFHIYNIW gave an amyloid nucleation score of 2.05 ± 0.08.
In the case of YAVLNELVTRSCLYAVSFTI, the amyloid nucleation score is reported as “inactive”.
With RVDWRNGRVRRHLRHVLRIN the amyloid nucleation score was “inactive”.
For FNAGYWGMSSKVSNESRWVY, the amyloid nucleation score was “inactive”.
With STQTGASRRENSPMGLGYNS the amyloid nucleation score was “inactive”.
With IVVANMWLLKKNYLRMELFA the amyloid nucleation score was “inactive”.
In the case of LSVCVRPWRNKTDVVGNGNK, the amyloid nucleation score is reported as “inactive”.
For GVKGFQRQKRIFFGFCEFKV, the amyloid nucleation score was “inactive”.
In the case of IKMNNDGSMILWSLSSPTDL, the amyloid nucleation score is reported as “inactive”.
In the case of FHVTVFWNRHNSDLMVLHR, the amyloid nucleation score is reported as “inactive”.
In the case of LFSHESLVTTGLVAVFSLAK, the amyloid nucleation score is reported as “inactive”.
With CLLRSSCGWMCLRTGTHCVV the amyloid nucleation score was 0.729 ± 0.25.
With DCLASGMISFRVTMSNRYTI the amyloid nucleation score was 0.241 ± 0.59.
For DDICIEKARDVVSMSPRSFR, the amyloid nucleation score was “inactive”.
In the case of GSTGVIDDLSKVHCGGMCVD, the amyloid nucleation score is reported as “inactive”.
For EFVEAYFSNGLSRLPLTHGM, the amyloid nucleation score was “inactive”.
For LKYFQVRT, the amyloid nucleation score was “inactive”.
NNCVGCPCFSYRS showed an amyloid nucleation score of 3.04 ± 0.072.
For TLASTGYFFR, the amyloid nucleation score was “inactive”.
For FMTWHFENCCWCRHSRFGLL, the amyloid nucleation score was “inactive”.
For PLQDL, the amyloid nucleation score was “inactive”.
With IIWREVINVAVYRVVAVTHK the amyloid nucleation score was “inactive”.
For QEWKQWLMSWTSRKAFSLKS, the amyloid nucleation score was “inactive”.
For LLIKDYMHDHLGIILYTEEC, the amyloid nucleation score was “inactive”.
For AVSFLWHTYVLGGLLKLFGG, the amyloid nucleation score was “inactive”.
For TYVRIGVCGVLWFCTFFTQC, the amyloid nucleation score was “inactive”.
For FFCNLSSILRWGN, the amyloid nucleation score was 0.572 ± 0.18.
For YDKVFLPLGWHWPERPMGQT, the amyloid nucleation score was “inactive”.
In the case of NFFTL, the amyloid nucleation score is reported as “inactive”.
In the case of FPHRMLRPCYESDTFPPWTG, the amyloid nucleation score is reported as “inactive”.
For YYYLKVHNLVSYVNAFVR, the amyloid nucleation score was “inactive”.
For KEQDTQSIAQCNKTHRA, the amyloid nucleation score was “inactive”.
For SNHITRFQLESQTIPIISFV, the amyloid nucleation score was “inactive”.
Work on PLRKCAMCSWVSSGEGPTYP yielded an amyloid nucleation score of 0.483 ± 0.24.
With NSNGCVQGQRFSWPWVGRLA the amyloid nucleation score was “inactive”.
With YLSIGSVSMSAGASANDAQ the amyloid nucleation score was “inactive”.
In the case of WVKNLVFEGHVGA, the amyloid nucleation score is reported as “inactive”.
With RLMFWRELGLFSKFKLSIQG the amyloid nucleation score was “inactive”.
Work on RVKVSYASYARK yielded an amyloid nucleation score of 1.49 ± 0.12.
In the case of MGHHRCYVRVSKKDYWF, the amyloid nucleation score is reported as “inactive”.
For IPNDYAVAYAEGQLLVCELK, the amyloid nucleation score was “inactive”.
Work on SFMYVCNLLLSSWSCP yielded an amyloid nucleation score of 1.83 ± 0.063.
For EEPNG, the amyloid nucleation score was “inactive”.
With SDCSGYLQ the amyloid nucleation score was “inactive”.
In the case of YHTAWWAEMCIDIKNGEL, the amyloid nucleation score is reported as “inactive”.
In the case of NIVERGSDLRGLCKTFNDIA, the amyloid nucleation score is reported as “inactive”.
FNFLVMILGITLPNNITFEH gave an amyloid nucleation score of 0.279 ± 0.17.
In the case of RSRNAIVLGACYC, the amyloid nucleation score is reported as “inactive”.
With LCCRQVTFERDVVVRYRRRR the amyloid nucleation score was “inactive”.
For NWKKCYVHYISSADYALRRF, the amyloid nucleation score was “inactive”.
In the case of NACSARMGVVYNMLPSGESR, the amyloid nucleation score is reported as “inactive”.
VYTRLVYIYQGVFCRIFSAC gave an amyloid nucleation score of 1.86 ± 0.094.
With RWNDKWGVDVRSLIIIFVGS the amyloid nucleation score was “inactive”.
For NSFYNWSSEKKL, the amyloid nucleation score was “inactive”.
With PTGLGTAYQLNAWTASFG the amyloid nucleation score was “inactive”.
In the case of EVPGHSGQYSGVDYGYVWLA, the amyloid nucleation score is reported as “inactive”.
For QKRIQFTSECTRKRNFWLFS, the amyloid nucleation score was “inactive”.

From the supplement of paper PMC12042874
